What was measured:
[1] = target: plasma purified human AT-III (antithrombin III), in complex with full-length unfractionated heparin (AT-III/UFH)

Chain of Factor X, P00742 (P00742 whole entry, looked up): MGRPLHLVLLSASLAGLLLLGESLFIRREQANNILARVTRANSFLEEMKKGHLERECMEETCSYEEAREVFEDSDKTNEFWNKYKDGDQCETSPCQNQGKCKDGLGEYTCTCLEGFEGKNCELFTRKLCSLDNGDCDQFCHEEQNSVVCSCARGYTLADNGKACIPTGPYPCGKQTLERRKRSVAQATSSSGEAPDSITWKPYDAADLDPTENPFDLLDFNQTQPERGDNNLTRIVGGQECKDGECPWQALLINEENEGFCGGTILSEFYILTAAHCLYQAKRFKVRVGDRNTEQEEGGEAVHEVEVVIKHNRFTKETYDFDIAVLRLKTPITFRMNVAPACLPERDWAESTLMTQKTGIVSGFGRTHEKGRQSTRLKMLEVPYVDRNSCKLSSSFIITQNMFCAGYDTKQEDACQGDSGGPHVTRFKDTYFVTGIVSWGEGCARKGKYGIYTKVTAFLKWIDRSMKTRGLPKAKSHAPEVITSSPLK
Chain of Factor X (FX), P00742 (P00742 whole entry, looked up): as above

B1: FIXa-I251S/R318Y/R338E/R403E/E410N (protein)
chain 1: YNSGKLEEFVQGNLERECMEEKCSFEEAREVFENTERTTEFWKQYVDGDQCESNPCLNGGSCKDDINSYECWCPFGFEGKNCELDVTCNIKNGRCEQFCKNSADNKVVCSCTEGYRLAENQKSCEPAVPFPCGRVSVSQTSKLTR
chain 2: VVGGEDAKPGQFPWQVVLNGKVDAFCGGSIVNEKWIVTAAHCVETGVKITVVAGEHNIEETEHTEQKRNVSRIIPHHNYNAAINKYNHDIALLELDEPLVLNSYVTPICIADKEYTNIFLKFGSGYVSGWGRVFHKGYSALVLQYLRVPLVDRATCLESTKFTIYNNMFCAGFHEGGRDSCQGDSGGPHVTEVEGTSFLTGIISWGEECAMKGKYGIYTKVSEYVNWIKNKTKLT
- kcat of FX activation by FIXa (Xase complex with FVIIIa, PC/PS vesicles, Ca2+) (Factor X, P00742): 4.8 s⁻¹
- K0.5-mut/K0.5-wt (against Catalyst Biosciences WT FIXa) [1]: > 517

B2: FIXa-K228N/K247N/N249S/R318Y/R338E/R403E/E410N (protein)
chain 1: YNSGKLEEFVQGNLERECMEEKCSFEEAREVFENTERTTEFWKQYVDGDQCESNPCLNGGSCKDDINSYECWCPFGFEGKNCELDVTCNIKNGRCEQFCKNSADNKVVCSCTEGYRLAENQKSCEPAVPFPCGRVSVSQTSKLTR
chain 2: VVGGEDAKPGQFPWQVVLNGKVDAFCGGSIVNEKWIVTAAHCVETGVNITVVAGEHNIEETEHTEQNRSVIRIIPHHNYNAAINKYNHDIALLELDEPLVLNSYVTPICIADKEYTNIFLKFGSGYVSGWGRVFHKGYSALVLQYLRVPLVDRATCLESTKFTIYNNMFCAGFHEGGRDSCQGDSGGPHVTEVEGTSFLTGIISWGEECAMKGKYGIYTKVSEYVNWIKNKTKLT
- kcat of FX activation by FIXa (Xase complex with FVIIIa, PC/PS vesicles, Ca2+) (Factor X, P00742): 6.1 s⁻¹
- K0.5-mut/K0.5-wt (against Catalyst Biosciences WT FIXa) [1]: > 517

B3: FIXa-D104N/K106S/I251S/R318Y/R338E/R403E/E410N (protein)
chain 1: YNSGKLEEFVQGNLERECMEEKCSFEEAREVFENTERTTEFWKQYVDGDQCESNPCLNGGSCKDDINSYECWCPFGFEGKNCELDVTCNIKNGRCEQFCKNSANNSVVCSCTEGYRLAENQKSCEPAVPFPCGRVSVSQTSKLTR
chain 2: VVGGEDAKPGQFPWQVVLNGKVDAFCGGSIVNEKWIVTAAHCVETGVKITVVAGEHNIEETEHTEQKRNVSRIIPHHNYNAAINKYNHDIALLELDEPLVLNSYVTPICIADKEYTNIFLKFGSGYVSGWGRVFHKGYSALVLQYLRVPLVDRATCLESTKFTIYNNMFCAGFHEGGRDSCQGDSGGPHVTEVEGTSFLTGIISWGEECAMKGKYGIYTKVSEYVNWIKNKTKLT
- kcat of FX activation by FIXa (Xase complex with FVIIIa, PC/PS vesicles, Ca2+) (Factor X, P00742): 5.5 s⁻¹
- K0.5-mut/K0.5-wt (against Catalyst Biosciences WT FIXa) [1]: > 517

B4: FIXa-Y155F/K247N/N249S/R318Y/R338E/R403E/E410N (protein)
chain 1: YNSGKLEEFVQGNLERECMEEKCSFEEAREVFENTERTTEFWKQYVDGDQCESNPCLNGGSCKDDINSYECWCPFGFEGKNCELDVTCNIKNGRCEQFCKNSADNKVVCSCTEGYRLAENQKSCEPAVPFPCGRVSVSQTSKLTR
chain 2: VVGGEDAKPGQFPWQVVLNGKVDAFCGGSIVNEKWIVTAAHCVETGVKITVVAGEHNIEETEHTEQNRSVIRIIPHHNYNAAINKYNHDIALLELDEPLVLNSYVTPICIADKEYTNIFLKFGSGYVSGWGRVFHKGYSALVLQYLRVPLVDRATCLESTKFTIYNNMFCAGFHEGGRDSCQGDSGGPHVTEVEGTSFLTGIISWGEECAMKGKYGIYTKVSEYVNWIKNKTKLT
- kcat/KM (Factor X (FX), P00742): 1.9e+08 M⁻¹ s⁻¹
- kcat of FX activation by FIXa (Xase complex with FVIIIa, PC/PS vesicles, Ca2+) (Factor X, P00742): 6.5 s⁻¹
- K0.5-mut/K0.5-wt (against Catalyst Biosciences WT FIXa) [1]: > 517

B5: FIXa-R318Y/R338E/R403E/E410S (protein)
chain 1: YNSGKLEEFVQGNLERECMEEKCSFEEAREVFENTERTTEFWKQYVDGDQCESNPCLNGGSCKDDINSYECWCPFGFEGKNCELDVTCNIKNGRCEQFCKNSADNKVVCSCTEGYRLAENQKSCEPAVPFPCGRVSVSQTSKLTR
chain 2: VVGGEDAKPGQFPWQVVLNGKVDAFCGGSIVNEKWIVTAAHCVETGVKITVVAGEHNIEETEHTEQKRNVIRIIPHHNYNAAINKYNHDIALLELDEPLVLNSYVTPICIADKEYTNIFLKFGSGYVSGWGRVFHKGYSALVLQYLRVPLVDRATCLESTKFTIYNNMFCAGFHEGGRDSCQGDSGGPHVTEVEGTSFLTGIISWGEECAMKGKYGIYTKVSEYVNWIKSKTKLT
- kcat/KM (Factor X (FX), P00742): 2.1e+08 M⁻¹ s⁻¹
- kcat of FX activation by FIXa (Xase complex with FVIIIa, PC/PS vesicles, Ca2+) (Factor X, P00742): 5.8 s⁻¹
- K0.5-mut/K0.5-wt (against Catalyst Biosciences WT FIXa) [1]: > 517

B6: FIXa-K247N/N249S/R318Y/R338E/E410N (protein)
chain 1: YNSGKLEEFVQGNLERECMEEKCSFEEAREVFENTERTTEFWKQYVDGDQCESNPCLNGGSCKDDINSYECWCPFGFEGKNCELDVTCNIKNGRCEQFCKNSADNKVVCSCTEGYRLAENQKSCEPAVPFPCGRVSVSQTSKLTR
chain 2: VVGGEDAKPGQFPWQVVLNGKVDAFCGGSIVNEKWIVTAAHCVETGVKITVVAGEHNIEETEHTEQNRSVIRIIPHHNYNAAINKYNHDIALLELDEPLVLNSYVTPICIADKEYTNIFLKFGSGYVSGWGRVFHKGYSALVLQYLRVPLVDRATCLESTKFTIYNNMFCAGFHEGGRDSCQGDSGGPHVTEVEGTSFLTGIISWGEECAMKGKYGIYTKVSRYVNWIKNKTKLT
- kcat of FX activation by FIXa (Xase complex with FVIIIa, PC/PS vesicles, Ca2+) (Factor X, P00742): 3.8 s⁻¹
- K0.5-mut/K0.5-wt (against Catalyst Biosciences WT FIXa) [1]: 78.3

B7: FIXa-Y155F/K247N/N249S/R318Y/R338E/E410N (protein)
chain 1: YNSGKLEEFVQGNLERECMEEKCSFEEAREVFENTERTTEFWKQYVDGDQCESNPCLNGGSCKDDINSYECWCPFGFEGKNCELDVTCNIKNGRCEQFCKNSADNKVVCSCTEGYRLAENQKSCEPAVPFPCGRVSVSQTSKLTR
chain 2: VVGGEDAKPGQFPWQVVLNGKVDAFCGGSIVNEKWIVTAAHCVETGVKITVVAGEHNIEETEHTEQNRSVIRIIPHHNYNAAINKYNHDIALLELDEPLVLNSYVTPICIADKEYTNIFLKFGSGYVSGWGRVFHKGYSALVLQYLRVPLVDRATCLESTKFTIYNNMFCAGFHEGGRDSCQGDSGGPHVTEVEGTSFLTGIISWGEECAMKGKYGIYTKVSRYVNWIKNKTKLT
- kcat/KM (Factor X (FX), P00742): 3.3e+08 M⁻¹ s⁻¹
- kcat of FX activation by FIXa (Xase complex with FVIIIa, PC/PS vesicles, Ca2+) (Factor X, P00742): 4.3 s⁻¹
- K0.5-mut/K0.5-wt (against Catalyst Biosciences WT FIXa) [1]: 200

B8: FIXa-Y155F/I251S/R318Y/R338E/R403E/E410N (protein)
chain 1: YNSGKLEEFVQGNLERECMEEKCSFEEAREVFENTERTTEFWKQYVDGDQCESNPCLNGGSCKDDINSYECWCPFGFEGKNCELDVTCNIKNGRCEQFCKNSADNKVVCSCTEGYRLAENQKSCEPAVPFPCGRVSVSQTSKLTR
chain 2: VVGGEDAKPGQFPWQVVLNGKVDAFCGGSIVNEKWIVTAAHCVETGVKITVVAGEHNIEETEHTEQKRNVSRIIPHHNYNAAINKYNHDIALLELDEPLVLNSYVTPICIADKEYTNIFLKFGSGYVSGWGRVFHKGYSALVLQYLRVPLVDRATCLESTKFTIYNNMFCAGFHEGGRDSCQGDSGGPHVTEVEGTSFLTGIISWGEECAMKGKYGIYTKVSEYVNWIKNKTKLT
- kcat of FX activation by FIXa (Xase complex with FVIIIa, PC/PS vesicles, Ca2+) (Factor X, P00742): 7.2 s⁻¹
- K0.5-mut/K0.5-wt (against Catalyst Biosciences WT FIXa) [1]: > 517

B9: FIXa-A103N/N105S/K247N/N249S/R318Y/R338E/R403E/E410N (protein)
chain 1: YNSGKLEEFVQGNLERECMEEKCSFEEAREVFENTERTTEFWKQYVDGDQCESNPCLNGGSCKDDINSYECWCPFGFEGKNCELDVTCNIKNGRCEQFCKNSNDSKVVCSCTEGYRLAENQKSCEPAVPFPCGRVSVSQTSKLTR
chain 2: VVGGEDAKPGQFPWQVVLNGKVDAFCGGSIVNEKWIVTAAHCVETGVKITVVAGEHNIEETEHTEQNRSVIRIIPHHNYNAAINKYNHDIALLELDEPLVLNSYVTPICIADKEYTNIFLKFGSGYVSGWGRVFHKGYSALVLQYLRVPLVDRATCLESTKFTIYNNMFCAGFHEGGRDSCQGDSGGPHVTEVEGTSFLTGIISWGEECAMKGKYGIYTKVSEYVNWIKNKTKLT
- kcat/KM (Factor X (FX), P00742): 1.5e+08 M⁻¹ s⁻¹
- kcat of FX activation by FIXa (Xase complex with FVIIIa, PC/PS vesicles, Ca2+) (Factor X, P00742): 4.1 s⁻¹
- K0.5-mut/K0.5-wt (against Catalyst Biosciences WT FIXa) [1]: 129

B10: FIXa-I251S/R318Y/R338E/E410N (protein)
chain 1: YNSGKLEEFVQGNLERECMEEKCSFEEAREVFENTERTTEFWKQYVDGDQCESNPCLNGGSCKDDINSYECWCPFGFEGKNCELDVTCNIKNGRCEQFCKNSADNKVVCSCTEGYRLAENQKSCEPAVPFPCGRVSVSQTSKLTR
chain 2: VVGGEDAKPGQFPWQVVLNGKVDAFCGGSIVNEKWIVTAAHCVETGVKITVVAGEHNIEETEHTEQKRNVSRIIPHHNYNAAINKYNHDIALLELDEPLVLNSYVTPICIADKEYTNIFLKFGSGYVSGWGRVFHKGYSALVLQYLRVPLVDRATCLESTKFTIYNNMFCAGFHEGGRDSCQGDSGGPHVTEVEGTSFLTGIISWGEECAMKGKYGIYTKVSRYVNWIKNKTKLT
- kcat/KM (Factor X (FX), P00742): 3.9e+08 M⁻¹ s⁻¹
- kcat of FX activation by FIXa (Xase complex with FVIIIa, PC/PS vesicles, Ca2+) (Factor X, P00742): 6.2 s⁻¹
- K0.5-mut/K0.5-wt (against Catalyst Biosciences WT FIXa) [1]: 303

B11: FIXa-K247N/N249S/R318Y/R338E/R403E/E410N (protein)
chain 1: YNSGKLEEFVQGNLERECMEEKCSFEEAREVFENTERTTEFWKQYVDGDQCESNPCLNGGSCKDDINSYECWCPFGFEGKNCELDVTCNIKNGRCEQFCKNSADNKVVCSCTEGYRLAENQKSCEPAVPFPCGRVSVSQTSKLTR
chain 2: VVGGEDAKPGQFPWQVVLNGKVDAFCGGSIVNEKWIVTAAHCVETGVKITVVAGEHNIEETEHTEQNRSVIRIIPHHNYNAAINKYNHDIALLELDEPLVLNSYVTPICIADKEYTNIFLKFGSGYVSGWGRVFHKGYSALVLQYLRVPLVDRATCLESTKFTIYNNMFCAGFHEGGRDSCQGDSGGPHVTEVEGTSFLTGIISWGEECAMKGKYGIYTKVSEYVNWIKNKTKLT
- kcat of FX activation by FIXa (Xase complex with FVIIIa, PC/PS vesicles, Ca2+) (Factor X, P00742): 5.8 s⁻¹
- K0.5-mut/K0.5-wt (against Catalyst Biosciences WT FIXa) [1]: 418

B12: FIXa-D104N/K106S/K247N/N249S/R318Y/R338E/R403E/E410N (protein)
chain 1: YNSGKLEEFVQGNLERECMEEKCSFEEAREVFENTERTTEFWKQYVDGDQCESNPCLNGGSCKDDINSYECWCPFGFEGKNCELDVTCNIKNGRCEQFCKNSANNSVVCSCTEGYRLAENQKSCEPAVPFPCGRVSVSQTSKLTR
chain 2: VVGGEDAKPGQFPWQVVLNGKVDAFCGGSIVNEKWIVTAAHCVETGVKITVVAGEHNIEETEHTEQNRSVIRIIPHHNYNAAINKYNHDIALLELDEPLVLNSYVTPICIADKEYTNIFLKFGSGYVSGWGRVFHKGYSALVLQYLRVPLVDRATCLESTKFTIYNNMFCAGFHEGGRDSCQGDSGGPHVTEVEGTSFLTGIISWGEECAMKGKYGIYTKVSEYVNWIKNKTKLT
- kcat of FX activation by FIXa (Xase complex with FVIIIa, PC/PS vesicles, Ca2+) (Factor X, P00742): 5.2 s⁻¹
- K0.5-mut/K0.5-wt (against Catalyst Biosciences WT FIXa) [1]: > 517

B13: FIXa-R318Y/R338E/R403E/E410N/T412V (protein)
chain 1: YNSGKLEEFVQGNLERECMEEKCSFEEAREVFENTERTTEFWKQYVDGDQCESNPCLNGGSCKDDINSYECWCPFGFEGKNCELDVTCNIKNGRCEQFCKNSADNKVVCSCTEGYRLAENQKSCEPAVPFPCGRVSVSQTSKLTR
chain 2: VVGGEDAKPGQFPWQVVLNGKVDAFCGGSIVNEKWIVTAAHCVETGVKITVVAGEHNIEETEHTEQKRNVIRIIPHHNYNAAINKYNHDIALLELDEPLVLNSYVTPICIADKEYTNIFLKFGSGYVSGWGRVFHKGYSALVLQYLRVPLVDRATCLESTKFTIYNNMFCAGFHEGGRDSCQGDSGGPHVTEVEGTSFLTGIISWGEECAMKGKYGIYTKVSEYVNWIKNKVKLT
- kcat/KM (Factor X (FX), P00742): 1.9e+08 M⁻¹ s⁻¹
- kcat of FX activation by FIXa (Xase complex with FVIIIa, PC/PS vesicles, Ca2+) (Factor X, P00742): 7.9 s⁻¹
- K0.5-mut/K0.5-wt (against Catalyst Biosciences WT FIXa) [1]: > 517
